Biological target: Human γD-crystallin V75D (human)
Sequence (P07320 2-174 V76D): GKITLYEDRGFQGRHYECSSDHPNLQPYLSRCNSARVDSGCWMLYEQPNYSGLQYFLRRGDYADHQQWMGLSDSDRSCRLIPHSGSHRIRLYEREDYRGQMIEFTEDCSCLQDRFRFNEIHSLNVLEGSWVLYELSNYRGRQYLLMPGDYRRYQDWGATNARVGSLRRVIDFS

suppression of aggregation on dilution out of 5 M GdnHCl (from maximum A350), αB in 5-fold molar excess: 73%
B1: αB-crystallin, wild type (natural protein)
chain: MDIAIHHPWIRRPFFPFHSPSRLFDQFFGEHLLESDLFPTSTSLSPFYLRPPSFLRAPSWFDTGLSEMRLEKDRFSVNLDVKHFSPEELKVKVLGDVIEVHGKHEERQDEHGFISREFHRKYRIPADVDPLTITSSLSSDGVLTVNGPRKQVSGPERTIPITREEKPAVTAAPKK
